Molecular target: purified rat recombinant TG2 protein (transgelin-2) (rat) (UniProt Q5XFX0)
Assay: SPR

Chain of purified rat recombinant TG2 protein (transgelin-2) (rat) (Q5XFX0 whole entry): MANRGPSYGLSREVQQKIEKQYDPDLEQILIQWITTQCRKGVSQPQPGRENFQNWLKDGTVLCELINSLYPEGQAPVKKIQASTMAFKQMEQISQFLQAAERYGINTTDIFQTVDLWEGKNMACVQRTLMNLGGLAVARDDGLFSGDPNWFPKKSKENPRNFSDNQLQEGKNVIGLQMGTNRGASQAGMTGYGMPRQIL

Kd: 0.0733 µM
Substance: ezrin (analyte in Biacore surface plasmon resonance) (from UniProt P31977 1-586) (natural protein)
